Assays:
[1] = molecular target: T1, unphosphorylated Aurora-A 1-403 (UniProt O14965 1-403); experiment: pull-down
T1 sequence: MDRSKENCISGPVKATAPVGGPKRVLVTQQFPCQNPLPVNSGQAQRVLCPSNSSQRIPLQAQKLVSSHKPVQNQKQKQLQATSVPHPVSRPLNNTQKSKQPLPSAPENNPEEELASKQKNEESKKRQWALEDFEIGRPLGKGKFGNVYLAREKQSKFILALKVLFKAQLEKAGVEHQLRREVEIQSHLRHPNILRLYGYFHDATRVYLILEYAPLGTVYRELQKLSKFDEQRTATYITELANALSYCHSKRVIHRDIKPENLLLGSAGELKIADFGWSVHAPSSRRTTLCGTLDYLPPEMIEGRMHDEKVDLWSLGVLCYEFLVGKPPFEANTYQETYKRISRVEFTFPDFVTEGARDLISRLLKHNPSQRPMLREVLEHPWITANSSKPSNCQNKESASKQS

Aurora-A kinase domain = molecular target: T2, Aurora-A kinase domain (UniProt O14965 122-403, C290A;K339C;C393A); experiment: EMSA
T2 sequence: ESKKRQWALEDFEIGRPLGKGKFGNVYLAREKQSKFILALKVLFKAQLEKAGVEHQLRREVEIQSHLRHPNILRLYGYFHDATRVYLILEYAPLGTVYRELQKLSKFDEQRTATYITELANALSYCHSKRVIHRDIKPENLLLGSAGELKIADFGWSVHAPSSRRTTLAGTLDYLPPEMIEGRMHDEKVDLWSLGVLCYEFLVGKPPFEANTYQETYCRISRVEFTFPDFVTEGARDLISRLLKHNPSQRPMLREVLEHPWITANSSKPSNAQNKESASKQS

[2] = molecular target: T3, Aurora-A 1-403, unphosphorylated (UniProt O14965 1-403); experiment: pull-down
T3 sequence: T1 sequence

B1: 3xFLAG-MYCN 1-137 (domain or fragment)
chain: MPSCSTSTMPGMICKNPDLEFDSLQPCFYPDEDDFYFGGPDSTPPGEDIWKKFELLPTPPLSPSRGFAEHSSEPPSWVTEMLLENELWGSPAEEDAFGLGGLGGLTPNPVILQDCMWSGFSAREKLERAVSEKLQHG
B1: binds [1].

B2: UGhigh RNA, Cy5 (ssRNA)
RNA: UGCUGGGAUGGUCAUGGUGGGUGACCCUGGGAUGGCCGCGGUGGGUGACCCUGGAAUGGU
B2: binds (Aurora-A kinase domain).

B3: UGhigh RNA, biotin (ssRNA)
RNA: B2 RNA
B3: binds [2].

Source: publication doi:10.1101/2025.01.15.633177 (bioRxiv, 2025)
